Assay [1] concerns the target C.CH505TF SOSIP.664.v4.1 (HIV-1 (C.CH505 transmitted/founder)).
Assay [2] concerns the target CH103 (human). As to the kind of experiment: BLI; […]; mAb (20 ug/mL in PBS) […] (AHC) […], association 400 s, […]; 1:1 model; […].
The target of assay [3] is CH103 UCA (human). The assay is described as above.
Assay [4] deals with CH103 UCA-P14S (human). Described as above.
Assay [5] deals with CH103 UCA-S30G (human). Described as above.
The target of assay [6] is CH103 UCA-S30G/S31G (human). Described as above.
For assay [7], the target named is CH103-S14P (human). Described as above.
The target in assay [8] is CH103-S14P/G30S (human). The description is as above.
Assay [9] deals with CH106 (human). Described as above.
Assay [10] addresses I4-S14P (human). The assay is described as above.
For assay [11], the target named is I4-S14P/G30S (human). The description is as above.
The target of assay [12] is C.CH505TF gp120 (HIV-1 clade C, CH505 transmitted/founder) (UniProt M4M0W3). Nature of the assay: SPR.
The target in assay [13] is CH103 (human). As to the kind of experiment: SPR. On the technique in general: In SPR one partner is held on a chip, and binding of the other changes the refractive index at the surface.
The target of assay [14] is CH103 lineage intermediate I3 (human). Nature of the assay: SPR.
Assay [15] addresses CH103 lineage intermediate I8 (human). As to the kind of experiment: SPR.
The target of assay [16] is CH103-S14P (human). Nature of the assay: SPR.
Assay [17] has as its target CH103-S14P/G30S (human). Nature of the assay: SPR.
The target of assay [18] is CH106 (human). As to the kind of experiment: SPR.
In assay [19] the target is CH103 (human). As to the kind of experiment: SPR; BIAcore T200; […]) 5 min at 50 µL/min, 10 min dissociation; […]; global 1:1 Langmuir fit; […].
For assay [20], the target named is CH106 (human). Described as above.
Assay [21] deals with I3 (CH103 lineage intermediate) (human). The description is as above.
Assay [22] concerns the target I8 (CH103 lineage intermediate) (human). The assay is described as above.
The target of assay [23] is CH103 (human). As to the kind of experiment: BLI; […] (AHC) […]; 1:1 model; […]. A general note: Biolayer interferometry detects binding as a change in optical thickness at a sensor tip.
Assay [24] concerns the target CH103 UCA (human). As to the kind of experiment: BLI; […] (AHC) […]; 1:1 model; […].
In assay [25] the target is CH103-S14P/G30S (human). Nature of the assay: BLI; […] (AHC) […]; 1:1 model; […].
Assay [26] has as its target CH106 (human). As to the kind of experiment: BLI; […] (AHC) […]; 1:1 model; […].
Assay [27] concerns the target I4-S14P/G30S (human). Nature of the assay: BLI; […] (AHC) […]; 1:1 model; […].
The target in assay [28] is UCA-P14S (human). Nature of the assay: BLI; […] (AHC) […]; 1:1 model; […].
Assay [29] concerns the target UCA-S30G (human). Nature of the assay: BLI; […] (AHC) […]; 1:1 model; […].
The target of assay [30] is UCA-S30G/S31G (human). Nature of the assay: BLI; […] (AHC) […]; 1:1 model; […].

Sequence of CH106 (human) (heavy, as listed by the source, chain 1 of 2): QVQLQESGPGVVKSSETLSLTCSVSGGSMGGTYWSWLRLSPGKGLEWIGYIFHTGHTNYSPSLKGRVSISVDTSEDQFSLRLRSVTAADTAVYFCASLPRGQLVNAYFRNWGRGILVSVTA
Sequence of CH106 (human) (light, as listed by the source, chain 2 of 2): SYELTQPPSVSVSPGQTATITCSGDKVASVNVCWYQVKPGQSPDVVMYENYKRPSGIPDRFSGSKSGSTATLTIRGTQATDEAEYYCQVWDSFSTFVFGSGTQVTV
Sequence of CH103 (human) (heavy, as listed by the source, chain 1 of 2): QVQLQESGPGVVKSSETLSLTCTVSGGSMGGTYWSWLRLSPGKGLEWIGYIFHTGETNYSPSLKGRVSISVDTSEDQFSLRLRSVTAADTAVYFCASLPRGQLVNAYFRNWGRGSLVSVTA
Sequence of CH103 (human) (light, as listed by the source, chain 2 of 2): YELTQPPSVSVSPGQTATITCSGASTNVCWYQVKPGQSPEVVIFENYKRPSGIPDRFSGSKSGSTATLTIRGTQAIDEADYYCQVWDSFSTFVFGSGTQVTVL
Sequence of CH103-S14P/G30S (human) (heavy, as listed by the source, chain 1 of 2): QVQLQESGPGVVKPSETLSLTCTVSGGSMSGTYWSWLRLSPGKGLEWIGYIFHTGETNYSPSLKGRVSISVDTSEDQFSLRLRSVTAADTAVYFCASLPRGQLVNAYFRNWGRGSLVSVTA
Sequence of CH103-S14P (human) (heavy, as listed by the source, chain 1 of 2): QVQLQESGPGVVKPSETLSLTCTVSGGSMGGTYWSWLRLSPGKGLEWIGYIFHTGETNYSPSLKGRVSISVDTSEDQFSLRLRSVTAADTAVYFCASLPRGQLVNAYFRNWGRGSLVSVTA

In assay [1], CH103-S14P/G30S (antibody) registered an IC80 of neutralisation of the autologous CH505TF Env-pseudovirus, TZM-bl cells (Env on the virus, not the SOSIP trimer) of 15.5 µg/mL.

What is called koff is the first-order rate constant of dissociation. Higher therefore signals a short-lived complex. Broadly, the kon is the rate constant with which the complex forms. Higher therefore signals faster complex formation. As usually defined, the Kd is a measure of binding affinity in units of concentration. The low end stands for higher affinity, the high end for lower affinity. For the substance C.CH505TF.SOSIP.664.v4.1 (complex), the koff in assay [2] was 1.5e-05 s⁻¹; in [3], 0.00168 s⁻¹; in [4] it was 0.0015 s⁻¹; in assay [5], 0.0015 s⁻¹; in [6], 0.0012 s⁻¹; in assay [7], 1.8e-05 s⁻¹. In addition, the koff in assay [8] amounted to 6.6e-05 s⁻¹; in assay [9] it was 3.6e-06 s⁻¹; in assay [10], 0.00027 s⁻¹; in assay [11] it was 0.00034 s⁻¹. Also, the kon in assay [2] amounted to 930 M⁻¹ s⁻¹; in assay [3], 1100 M⁻¹ s⁻¹; in assay [4], 900 M⁻¹ s⁻¹; in assay [5], 860 M⁻¹ s⁻¹; in assay [6], 1400 M⁻¹ s⁻¹; in [7], 890 M⁻¹ s⁻¹. Also, the kon is 450 M⁻¹ s⁻¹ in assay [8], 670 M⁻¹ s⁻¹ in assay [9], 2460 M⁻¹ s⁻¹ in assay [10] and 2120 M⁻¹ s⁻¹ in assay [11]. Besides, the Kd was 20 nM in assay [7] and 109 nM in assay [10].

CH103-S14P (antibody) showed an IC80 of neutralisation of the autologous CH505TF Env-pseudovirus, TZM-bl cells (Env on the virus, not the SOSIP trimer) in assay [1] of 12.8 µg/mL.

In assay [1], I4-S14P (antibody) came in with an IC50 of neutralisation of the autologous CH505TF Env-pseudovirus, TZM-bl cells (Env on the virus, not the SOSIP trimer) of 14.8 µg/mL and an IC80 of neutralisation of the autologous CH505TF Env-pseudovirus, TZM-bl cells (Env on the virus, not the SOSIP trimer) above 50 µg/mL. Moreover, in assay [12], the Kd came out at 40 nM, the koff worked out at 0.00053 s⁻¹ and the kon was 13100 M⁻¹ s⁻¹.

Take B.63521 D11 gp120 (domain or fragment): the koff in assay [13] stood at 2e-05 s⁻¹; in assay [14] it was 0.0225 s⁻¹; in assay [15], 0.113 s⁻¹; in assay [16] it was 2e-05 s⁻¹; in assay [17], 2.9e-05 s⁻¹; in assay [18], 0.000229 s⁻¹. Further, the kon in [13] worked out at 15000 M⁻¹ s⁻¹; in [14], 5300 M⁻¹ s⁻¹; in assay [16] it was 9100 M⁻¹ s⁻¹; in assay [17], 8210 M⁻¹ s⁻¹; in [18] it was 16000 M⁻¹ s⁻¹; in assay [22], 170 M⁻¹ s⁻¹. The Kd in assay [15] was determined as 680000 nM; in [16] it was 2.1 nM; in assay [17], 4 nM; in assay [19] it was 1.1 nM; in [20], 14.2 nM; in assay [21] it was 4200 nM. This substance also displayed a fold faster ka than I8 in assay [21] above 50 fold.

In assay [1], I4-S14P/G30S (antibody) came in with an IC50 of neutralisation of the autologous CH505TF Env-pseudovirus, TZM-bl cells (Env on the virus, not the SOSIP trimer) of 43.2 µg/mL and an IC80 of neutralisation of the autologous CH505TF Env-pseudovirus, TZM-bl cells (Env on the virus, not the SOSIP trimer) above 50 µg/mL. In [12], this substance showed a Kd of 100 nM, a koff of 0.00101 s⁻¹ and a kon of 10000 M⁻¹ s⁻¹.

On to C.CH505TF SOSIP.664.v4.1 (complex), for which the Kd in assay [23] came out at 16 nM; in assay [24], 1500 nM; in [25], 150 nM; in assay [26] it was 5 nM; in [27] it was 160 nM; in assay [28], 1700 nM. Also, the figures for the Kd in assay [29] and in assay [30] were 1800 nM and 800 nM, respectively.

The substance CH103 (antibody) returned an IC80 of neutralisation of the autologous CH505TF Env-pseudovirus, TZM-bl cells (Env on the virus, not the SOSIP trimer) in assay [1] of 6.4 µg/mL.

For the origin of these results see paper PMC6368608.
